Here are results for 1 molecule from patent US20230190652A1, “COMPOSITION FOR THE TREATMENT OF COVID-19 AND TREATMENT METHOD” (priority 2020, published 2023).

The test system of the test is COVID-19. In words: Intubated hospitalized critically ill COVID-19 patients. Type of test: in vivo, human. The settings on record: patients in a critical condition with cytokine storm.

B1: lactoferrin (protein, UniProt P24627 20-708, looked up)
Lactotransferrin: APRKNVRWCTISQPEWFKCRRWQWRMKKLGAPSITCVRRAFALECIRAIAEKKADAVTLDGGMVFEAGRDPYKLRPVAAEIYGTKESPQTHYYAVAVVKKGSNFQLDQLQGRKSCHTGLGRSAGWIIPMGILRPYLSWTESLEPLQGAVAKFFSASCVPCIDRQAYPNLCQLCKGEGENQCACSSREPYFGYSGAFKCLQDGAGDVAFVKETTVFENLPEKADRDQYELLCLNNSRAPVDAFKECHLAQVPSHAVVARSVDGKEDLIWKLLSKAQEKFGKNKSRSFQLFGSPPGQRDLLFKDSALGFLRIPSKVDSALYLGSRYLTTLKNLRETAEEVKARYTRVVWCAVGPEEQKKCQQWSQQSGQNVTCATASTTDDCIVLVLKGEADALNLDGGYIYTAGKCGLVPVLAENRKSSKHSSLDCVLRPTEGYLAVAVVKKANEGLTWNSLKDKKSCHTAVDRTAGWNIPMGLIVNQTGSCAFDEFFSQSCAPGADPKSRLCALCAGDDQGLDKCVPNSKEKYYGYTGAFRCLAEDVGDVAFVKNDTVWENTNGESTADWAKNLNREDFRLLCLDGTRKPVTEAQSCHLAVAPNHAVVSRSDRAAHVKQVLLHQQALFGKNGKNCPDKFCLFKSETKNLLFNDNTECLAKLGGRPTYEEYLGTEYVTAIANLKKCSTSPLLEACAFLTR
notes: bovine LF used
For the molecule B1, the “IL-6, TNF alpha, ferritin and DD2 parameters” value is “normalizing or decreasing”.
